B1: bZIP63 (protoplast two-hybrid fusion) [Arabidopsis thaliana] / bZIP11 (protoplast two-hybrid fusion) [Arabidopsis thaliana] (parent)
chain 1: MEKVFSDEEISGNHHWSVNGMTSLNRSASEWAFNRFIQESSAAADDGESTTACGVSVSSPPNVPVDSEEYRAFLKSKLNLACAAVAMKRGTFIKPQDTSGRSDNGGANESEQASLASSKATPMMSSAITSGSELSGDEEEADGETNMNPTNVKRVKRMLSNRESARRSRRRKQAHLSELETQVSQLRVENSKLMKGLTDVTQTFNDASVENRVLKANIETLRAKVKMAEETVKRLTGFNPMFHNMPQIVSTVSLPSETSNSPDTTSSQVTTPEIISSGNKGKALIGCKMNRTASMRRVESLEHLQKRIRSVGDQ
chain 2: MESSSSGTTSSTIQTSSGSEESLMEQRKRKRMLSNRESARRSRMKKQKLLDDLTAQVNHLKKENTEIVTSVSITTQHYLTVEAENSVLRAQLDELNHRLQSLNDIIEFLDSSNNNNNNNMGMCSNPLVGLECDDFFVNQMNMSYIMNQPLMASSDALMY
B2: bZIP63 (protoplast two-hybrid fusion) [Arabidopsis thaliana] / bZIP63 (protoplast two-hybrid fusion) [Arabidopsis thaliana] (parent)
chain 1: B1 chain 1
chain 2: B1 chain 1

Experiments:
[1] = variants of: B1; assay: protoplast two-hybrid (P2H) assay; settings: for response (% of signal with wt bZIP63 and AKIN10): - AKIN10 (no co-transformation), parent: 8, read off a plot; for percent of parent: with bZIP11 (protoplast two-hybrid fusion) [Arabidopsis thaliana], + AKIN10 co-transformation, parent: 100, read off a plot
[2] = variants of: B2; assay: protoplast two-hybrid (P2H) assay; settings: for response (% of signal with wt bZIP63 and AKIN10): - AKIN10 (no co-transformation), parent: 13, read off a plot; for percent of parent: with bZIP63 (protoplast two-hybrid fusion) [Arabidopsis thaliana], + AKIN10 co-transformation, parent: 100, read off a plot

Variant	response (% of signal with wt bZIP63 and AKIN10) [1]	percent of parent [1] [%]	response (% of signal with wt bZIP63 and AKIN10) [2]	percent of parent [2] [%]
chain 1 S294A	7	110		
chain 1 S300A	13	100		
chain 1 S29A	11	32		
chain 1 S294A S300A	10	110		
chain 1 S29A S294A S300A	7.5	27		
chain 1 S29A S294A S300A			11	
chain 1 S294A S300A			10	67
chain 1 S300A			8	79
chain 1 S294A			10	75
chain 1 S29A			7	44

From article PMC4558565
